Measurements reported in patent US5985822A, “Inhibition of glial cell proliferation with N-CAM homophilic peptides” (The Scripps Research Institute, priority 1995, dated 1999).

System: dividing astrocytes in cerebral cortex, hippocampus or striatum
Test: In vivo labeling index of dividing astrocytes (BrdU with GFAP or S100) after stab lesion with infusion
Design: species or system rat
Conditions: for Labeling Index (Experimental): N-CAM 250 μg/ml, 3rd Ig domain 5 mg/ml, N-CAM peptide 1 mg/ml, 3 μl infused, n=3
Method: Samples were injected into the brains of rats (Wistar Albino, Male, 200-250 g, Charles River, anesthetized with xylazine (12 mg/kg) and ketamine (90 mg/kg) through a 26 gauge needle. The needle point was placed at the stereotactic coordinates of either the hippocampus, cerebral cortex or striatum (Table 2). Bilateral injections of 3-4 μl were made using an Hamilton syringe. Each animal received an infusion of either the purified rat N-CAM (250 μg/ml), the third Ig domain of chicken N-CAM (5 mg/ml), or the rat N-CAM peptide KHIFSDDSSE (SEQ ID NO 2) (1 mg/ml) in PBS into one hemisphere; the other hemisphere was infused with the random peptide (SFSISDEDHK (SEQ ID NO 9), 1 mg/ml in PBS) as a control. The experimental and control sides varied between animals and choice of side had no significant effect on the results. Three μl of each protein or peptide was infused at a rate of 0.2 μl per minute after which the needle was left in place for 5 minutes and then removed. In one experiment, a group of animals received basic fibroblast growth factor (bFGF, 450 ng) in the solutions which contained either the random peptide or the purified N-CAM.
The samples were either purified N-CAM in phosphate buffered saline (PBS), N-CAM peptide KHIFSDDSSE (SEQ. ID. NO. 2) (1 mg/ml or 10 mg/ml) in PBS, or the corresponding random peptide SFSISDEDHK (SEQ ID NO 9) (1 mg/ml) (see Example 3 above). The injection rate was about 0.2 μl/min; the needle was left in place for 5 minute after the injection. Each animal received either the purified N-CAM or the N-CAM peptide injected into one side of the brain and the corresponding structure on the other side was injected with the random peptide as a control.
Three animals were examined for each treatment and brain region described. Animals were maintained for a postinjection survival time of about 70-72 hours. During that time they received five injections of bromodeoxyuridine (Brdu) dissolved in 0.007 N NaOH (120 mg/kg, intraperitoneal). Two of the three animals that had been injected in the hippocampus received Brdu approximately 18, 28, 42, 52, and 70 hours after the stereotactic surgery. All of the animals that had been injected in the cerebral cortex or the striatum and one animal injected in the hippocampus received Brdu approximately 2, 18, 28, 42, and 52 hours after the stereotactic surgery.
Animals were perfused under anesthesia with about 30 ml of ice-cold PBS followed by about 400 ml of ice-cold […] in PBS. The brains were then removed and postfixed for 2-16 hours in 4% paraformaldehyde in PBS then placed in succeeding solutions of ascending concentrations of sucrose (12%, 18%, and 24%). The brains were then sectioned on a cryostat at a thickness of 10 μm.
Non-specific binding on the sections was blocked by incubation in 8% fetal bovine serum (FBS) in PBS. Sections were then incubated in polyclonal antibody to glial fibrillary acidic protein (GFAP; 1:100 dilution, Dako) in 0.2% Triton X-100, 8% FBS/PBS for 24 - 48 hr at 4° C. The sections were processed using a biotinylated secondary antibody and the Vectastain ABC kit (Vector), and stained with a diaminobenzidine peroxidase substrate kit from Vector or Pierce. The sections were then incubated for 6 minutes in a solution of Proteinase K (Dako), rinsed and incubated in 2 N HCL for 20 minutes at 37° C. The sections were rinsed and blocked in 8% FBS/PBS and incubated in a monoclonal antibody to Brdu (1:40 dilution, Dako), 0.01% Triton X-100, 8% fetal bovine serum/PBS for 24-48 hr at 4° C. The sections were processed using a biotinlyated secondary antibody and the Vectastain ABC kit (Vector), and stained with a VIP peroxidase substrate kit from Vector giving the Brdu positive cells a red color. The sections were then rinsed in PBS and coverslipped in glycerol/PBS.
GFAP positive cells and cells positive for both GFAP and BRDU were counted under a Zeiss Axiophot light microscope. […]

B1: N-CAM: neural cell adhesion molecule purified from early postnatal rat brains by affinity chromatography, mainly polysialylated embryonic form (protein, UniProt P13596 20-858, looked up)
Neural cell adhesion molecule …: LQVDIVPSQGEISVGESKFFLCQVAGDAKDKDISWFSPNGEKLSPNQQRISVVWNDDDSSTLTIYNANIDDAGIYKCVVTAEDGTQSEATVNVKIFQKLMFKNAPTPQEFKEGEDAVIVCDVVSSLPPTIIWKHKGRDVILKKDVRFIVLSNNYLQIRGIKKTDEGTYRCEGRILARGEINFKDIQVIVNVPPTVQARQSIVNATANLGQSVTLVCDADGFPEPTMSWTKDGEPIENEEEDDEKHIFSDDSSELTIRNVDKNDEAEYVCIAENKAGEQDASIHLKVFAKPKITYVENQTAMELEEQVTLTCEASGDPIPSITWRTSTRNISSEEKASWTRPEKQETLDGHMVVRSHARVSSLTLKSIQYTDAGEYICTASNTIGQDSQSMYLEVQYAPKLQGPVAVYTWEGNQVNITCEVFAYPSATISWFRDGQLLPSSNYSNIKIYNTPSASYLEVTPDSENDFGNYNCTAVNRIGQESLEFILVQADTPSSPSIDRVEPYSSTAQVQFDEPEATGGVPILKYKAEWKSLGEEAWHSKWYDAKEANMEGIVTIMGLKPETRYAVRLAALNGKGLGEISAATEFKTQPVREPSAPKLEGQMGEDGNSIKVNLIKQDDGGSPIRHYLVKYRALASEWKPEIRLPSGSDHVMLKSLDWNAEYEVYVVAENQQGKSKAAHFVFRTSAQPTAIPANGSPTAGLSTGAIVGILIVIFVLLLVVMDITCYFLNKCGLLMCIAVNLCGKAGPGAKGKDMEEGKAAFSKDESKEPIVEVRTEEERTPNHDGGKHTEPNETTPLTEPEKGPVETKSEPQESEAKPAPTEVKTVPNEATQTKENESKA
modifications: polysialylated embryonic form
Percent Difference of labeling index, experimental vs control (cerebral cortex): -52.1 ± 4.5%
Labeling Index (Experimental) (cerebral cortex): 10.2 ± 1.5%
effect on mitogenic effects of bFGF in vivo (cortical lesion, bFGF 450 ng co-infused): able to oppose the mitogenic effects of bFGF
Percent Difference of labeling index, experimental vs control (hippocampus): -25.2 ± 1.6%
Labeling Index (Experimental) (hippocampus): 14.6 ± 2.3%
inhibition of astrocyte proliferation (infusion into cerebral cortex at 100 μg/ml): 0-10%
Percent Difference of labeling index, experimental vs control (striatum): -20.8 ± 2.1%
Labeling Index (Experimental) (striatum): 20.7 ± 0.7%
